# Reference: publication doi:10.1101/2023.02.03.526778
# Target: His-tagged recombinant human LDLR (extracellular domain, hLDLR-ECD) (human) (UniProt P01130)
# Test: SPR
# UniProt P01130, sequence (P01130 22-788): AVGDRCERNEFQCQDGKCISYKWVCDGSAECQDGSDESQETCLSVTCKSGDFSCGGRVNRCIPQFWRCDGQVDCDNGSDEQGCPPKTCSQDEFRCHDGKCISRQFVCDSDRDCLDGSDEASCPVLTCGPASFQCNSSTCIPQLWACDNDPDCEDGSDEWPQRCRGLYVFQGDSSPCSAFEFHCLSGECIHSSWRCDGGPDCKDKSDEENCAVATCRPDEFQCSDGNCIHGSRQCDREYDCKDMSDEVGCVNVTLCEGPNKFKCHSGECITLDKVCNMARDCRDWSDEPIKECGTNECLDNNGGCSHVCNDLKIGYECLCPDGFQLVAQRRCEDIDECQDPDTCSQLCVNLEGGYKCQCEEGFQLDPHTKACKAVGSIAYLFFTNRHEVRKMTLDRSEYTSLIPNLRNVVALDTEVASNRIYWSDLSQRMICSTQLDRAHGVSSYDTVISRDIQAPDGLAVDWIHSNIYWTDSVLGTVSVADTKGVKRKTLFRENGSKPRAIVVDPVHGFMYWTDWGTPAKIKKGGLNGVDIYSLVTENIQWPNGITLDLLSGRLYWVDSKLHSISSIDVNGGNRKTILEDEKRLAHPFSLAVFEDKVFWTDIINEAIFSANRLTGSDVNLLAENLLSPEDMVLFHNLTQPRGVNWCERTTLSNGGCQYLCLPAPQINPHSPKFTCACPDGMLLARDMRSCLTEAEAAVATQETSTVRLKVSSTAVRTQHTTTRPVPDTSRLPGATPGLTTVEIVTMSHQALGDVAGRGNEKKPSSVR
substance,measurement,value
VH4127 peptide (cyclo[(D)-Cys-Met-Thz-Arg-Leu-Arg-Gly-Pen]),Kd,0.0401 µM
